Literature values, collected in PMC4788383.
Like-named read-outs stand apart in the source and are kept apart here.

Key:
[1] = target: RNA polymerase II CTD peptide CTD (Homo sapiens) (UniProt P24928)
[2] = target: RNA polymerase II CTD peptide CTD (Homo sapiens) (UniProt P24928); remark: listed apart in the source

Kd [1]: 61 µM | Kd [2]: 30 µM
Substance: Pin1 (from UniProt Q13526)
